These results are taken from publication PMC12328707, “Potassium binding by carbonyl clusters, halophilic adaptation and catalysis of Haloferax mediterranei D-2-hydroxyacid dehydrogenase” (Communications Biology, 2025).

What all share (assay): purified protein
What all share (assay type): biochemical, Haloferax mediterranei

Substrate in data set [1]: NC(=O)C1=CN([C@@H]2O[C@H](COP(=O)(O)OP(=O)(O)OC[C@H]3O[C@@H](n4cnc5c(N)ncnc54)[C@H](OP(=O)(O)O)[C@@H]3O)[C@@H](O)[C@H]2O)C=CC1
Particulars: 4 mM 2-ketohexanoic acid, 4 M KCl, 50 mM HEPES pH 8.0, 22 °C, varied: cofactor.

Substrate in data set [2]: NC(=O)C1=CN([C@@H]2O[C@H](COP(=O)(O)OP(=O)(O)OC[C@H]3O[C@@H](n4cnc5c(N)ncnc54)[C@H](O)[C@@H]3O)[C@@H](O)[C@H]2O)C=CC1
Particulars: 20 mM 2-ketohexanoic acid, 4 M KCl, 50 mM HEPES pH 8.0, 22 °C, varied: cofactor.

Substrate in data set [3]: CCCCC(=O)C(=O)O
Particulars: 0.25 mM NADPH, 4 M KCl, 50 mM HEPES pH 8.0, 22 °C.

B1: D2HDH (Haloferax mediterranei ATCC 33500) (protein)
chain: MHIERLAVDESVGRAMPPQRFIEALSDLGVPVEFAGEDEQFGPGDAVASFGHRDAFLDADWVHCIRAGYDEFPVGVYEEAGTYLTNSTGIHGTTVGETVAGYMLTFARRLHAYRDAQHDHAWDLPRYEEPFTLAGERVCVVGLGTLGRGVVDRAAALGMEVVGVRRSGDPVDNVSTVYTPDRLHEAIADARFVVLATPLTDETEGMVAAPEFETMREDASLVNVARGPVVVESDLVAALDSGDIAGAALDVFSEEPLPEDSPLWDFEDVLITPHVSAATSKYHEDVAALIRENIEKIATGDELTNRVV
notes: homodimer (~66 kDa; 79 kDa by gel filtration); residues 1-308; no tag mentioned
Consider B1, for which, in data set [1], the Km was determined as 14 ± 4 µM, the Vmax is 2.5 µmol/min/mg, the kcat was 1.38 ± 0.0667 s⁻¹ and the catalytic efficiency (kcat/Km) amounted to 98800 M⁻¹ s⁻¹. For the same protein, in data set [2], the Km was 97 ± 18 µM, the maximum rate (Vmax) was 4.4 µmol/min/mg, the catalytic constant (kcat) worked out at 2.48 ± 0.167 s⁻¹ and the kcat/Km came out at 25600 M⁻¹ s⁻¹. For the same protein, in data set [3], the Km was determined as 460 ± 30 µM, the Vmax was found to be 2.5 µmol/min/mg, the turnover number (kcat) was 1.38 ± 0.0333 s⁻¹ and the kcat/Km turned out to be 3000 M⁻¹ s⁻¹.
